Measured values as given in PMC8569185 (Frontiers in Pharmacology, 2021).

B1: blenniorphin 1–8 (peptide)
peptide: YGGFMRRV
notes: numbers count on: the dyn A 1–17-like peptide, not the precursor; Free N-terminus and free C-terminal carboxyl as printed (NH2-...-COOH); source: synthetic peptide (Boc-based SPPS, RP-HPLC purified)
B2: blenniorphin 1–13 (peptide)
peptide: YGGFMRRVGRPEW
notes: numbers count on: the dyn A 1–17-like peptide, not the precursor; Free N-terminus and free C-terminal carboxyl as printed (NH2-...-COOH); also called blenniorphin-13; source: synthetic peptide (Boc-based SPPS, RP-HPLC purified)
B3: blenniorphin 1–17 (peptide)
peptide: YGGFMRRVGRPEWLVDS
notes: numbers count on: the dyn A 1–17-like peptide, not the precursor; Free N-terminus and free C-terminal carboxyl as printed (NH2-...-COOH); also called blenniorphin-17; source: synthetic peptide (Fmoc-based SPPS, RP-HPLC purified)

These molecules were tested against mouse KOR-EGFP (mouse, UniProt P33534 1-380) (assay: cell-based or functional assay). Conditions: not given.
Chain of mouse KOR-EGFP (P33534 whole entry): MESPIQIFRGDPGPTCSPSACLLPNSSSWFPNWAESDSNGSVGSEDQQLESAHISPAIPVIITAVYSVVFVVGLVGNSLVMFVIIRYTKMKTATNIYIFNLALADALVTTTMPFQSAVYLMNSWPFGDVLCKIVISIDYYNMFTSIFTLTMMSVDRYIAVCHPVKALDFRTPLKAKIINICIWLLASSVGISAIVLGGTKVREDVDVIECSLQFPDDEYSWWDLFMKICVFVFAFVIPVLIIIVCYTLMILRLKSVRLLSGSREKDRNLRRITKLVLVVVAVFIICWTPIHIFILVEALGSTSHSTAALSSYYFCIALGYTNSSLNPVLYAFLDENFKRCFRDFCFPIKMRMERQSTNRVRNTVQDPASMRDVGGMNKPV
With B1 the “extent of β-arrestin-2-Nluc recruitment to KOR-EGFP (BRET) at 10 µM peptide, relative to 10 µM dyn A 1–13 (100%)” value (shortened to “extent … relative to 10 µM dyn A 1–13 (100%)”) was about 30 % lower than dyn A 1–13. With B2 the “extent … relative to 10 µM dyn A 1–13 (100%)” value was about 30 % lower than dyn A 1–13. For B3, the “extent … relative to 10 µM dyn A 1–13 (100%)” value was about 30 % lower than dyn A 1–13.

Each molecule was assayed against mouse KOR (Mus musculus, UniProt P33534) (assay: cell-based). Conditions: HEK293, read-out: Efficacy cAMP Emax ± SD.
Chain of mouse KOR (P33534 whole entry): as above
With CSCC[C@H](NC(=O)[C@H](Cc1ccccc1)NC(=O)CNC(=O)CNC(=O)[C@@H](N)Cc1ccc(O)cc1)C(=O)N[C@@H](CCCNC(=N)N)C(=O)N[C@@H](CCCNC(=N)N)C(=O)N[C@H](C(=O)O)C(C)C [blenniorphin 1–8] the Emax at 10 µM was 82.4 ± 9.8%. With H-YGGFMRRVGRPEW-OH [blenniorphin 1–13] the Emax at 10 µM was 98.5 ± 9.1%. With “H-YGGFMRRVGRPEWLVDS-OH [blenniorphin 1–17]” the Emax at 10 µM was 97.5 ± 11%.

These molecules were tested against T1, mouse κ-opioid receptor (mouse, UniProt P33534 1-380) (assay: cell-based or functional assay). Conditions: not given.
T1 sequence (P33534 whole entry): as above
For B1, the “EC50 of inhibition of forskolin-stimulated cAMP accumulation (HTRF cAMP-Gi kit), HEK293 cells stably expressing mouse KOR” value was 3.6 nM and the “Emax of cAMP inhibition, normalised to 10 µM dyn A 1–13 (100%), HEK293 cells stably expressing mouse KOR” value was 82.4%. For B2, the “EC50 of inhibition of forskolin-stimulated cAMP accumulation (HTRF cAMP-Gi kit), HEK293 cells stably expressing mouse KOR” value was 5 nM and the “Emax of cAMP inhibition, normalised to 10 µM dyn A 1–13 (100%), HEK293 cells stably expressing mouse KOR” value was 98.5%. In the case of B3, the “EC50 of inhibition of forskolin-stimulated cAMP accumulation (HTRF cAMP-Gi kit), HEK293 cells stably expressing mouse KOR” value is reported as 15.2 nM and the “Emax of cAMP inhibition, normalised to 10 µM dyn A 1–13 (100%), HEK293 cells stably expressing mouse KOR” value is reported as 97.5%.

These molecules were tested against T1, mouse κ-opioid receptor (assay: radioligand binding; displacement of [3H]-diprenorphine (1 nM) from HEK293 cell membranes stably expressing mouse KOR (6.3–7.6 µg/assay) by peptides (0.1 nM–30 µM); 50 mM Tris-HCl pH 7.4, 10 mM MgCl2, 0.1% BSA; 1.5 h at 37°C; filtration; Ki from IC50 by Cheng and Prusoff). Conditions: one partner purified.
In the case of B1, the Ki is reported as 3.3 nM. B2 showed a Ki of 116 nM. B3 was tested, and the Ki was 85.8 nM.
